Substitutions are numbered along the chain they refer to. Numbers in names are those of the source.
Columns and labels:
PhnY = PhnY (Sinorhizobium meliloti, UniProt Q92UV7); assay: X-ray crystal structure of ternary complex with NAD+, […] Å; format: binding; details: NAD+ bound; active site, non-covalent
[1] = substrate: O=CCP(=O)(O)O; assay: steady-state kinetics, NAD+ reduction monitored; format: biochemical, Sinorhizobium meliloti; details: saturating NAD+, 50 mM HEPES pH 7.5, 10 mM MgSO4, 30 °C
[2] = substrate: O=CCCP(=O)(O)O; assay: steady-state kinetics, NAD+ reduction monitored; format: biochemical, Sinorhizobium meliloti; details: 50 mM HEPES pH 7.5, 10 mM MgSO4, 30 °C
[3] = substrate: O=CC(O)COP(=O)(O)O; assay: steady-state kinetics, NADP+ reduction monitored; format: biochemical, Streptococcus mutans; details: racemic G3P, saturating NADP+, 50 mM HEPES pH 8.0, 5 mM DTT
[4] = substrate: O=CCCP(=O)(O)O; assay: steady-state kinetics, NADP+ reduction monitored; format: biochemical, Streptococcus mutans; details: saturating NADP+, 50 mM HEPES pH 8.0, 5 mM DTT

PhnY, sequence (Q92UV7 whole entry): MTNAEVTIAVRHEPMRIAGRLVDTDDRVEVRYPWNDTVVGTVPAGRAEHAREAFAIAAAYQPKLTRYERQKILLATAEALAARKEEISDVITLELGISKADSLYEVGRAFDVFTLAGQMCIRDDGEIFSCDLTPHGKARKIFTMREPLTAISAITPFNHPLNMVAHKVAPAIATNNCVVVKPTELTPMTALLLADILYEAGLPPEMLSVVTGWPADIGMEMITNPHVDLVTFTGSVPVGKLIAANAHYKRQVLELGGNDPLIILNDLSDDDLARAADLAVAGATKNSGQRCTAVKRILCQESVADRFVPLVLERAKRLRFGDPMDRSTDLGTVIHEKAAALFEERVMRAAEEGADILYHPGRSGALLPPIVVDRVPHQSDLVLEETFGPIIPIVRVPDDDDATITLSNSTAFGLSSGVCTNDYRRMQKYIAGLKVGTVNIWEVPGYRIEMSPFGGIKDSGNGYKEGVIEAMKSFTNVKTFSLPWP

In the case of `O=C(O)CP(=O)(O)O` [PnA], the “X-ray crystal structure of ternary complex with NAD+, 2.07 Å” value (PhnY) is reported as “cocrystal structure of PhnY in complex with NAD^+ and PnA shows clear and continuous density”.

B1: PhnY (Sinorhizobium meliloti 1021; R447A) (protein)
chain: MTNAEVTIAVRHEPMRIAGRLVDTDDRVEVRYPWNDTVVGTVPAGRAEHAREAFAIAAAYQPKLTRYERQKILLATAEALAARKEEISDVITLELGISKADSLYEVGRAFDVFTLAGQMCIRDDGEIFSCDLTPHGKARKIFTMREPLTAISAITPFNHPLNMVAHKVAPAIATNNCVVVKPTELTPMTALLLADILYEAGLPPEMLSVVTGWPADIGMEMITNPHVDLVTFTGSVPVGKLIAANAHYKRQVLELGGNDPLIILNDLSDDDLARAADLAVAGATKNSGQRCTAVKRILCQESVADRFVPLVLERAKRLRFGDPMDRSTDLGTVIHEKAAALFEERVMRAAEEGADILYHPGRSGALLPPIVVDRVPHQSDLVLEETFGPIIPIVRVPDDDDATITLSNSTAFGLSSGVCTNDYRRMQKYIAGLKVGTVNIWEVPGYAIEMSPFGGIKDSGNGYKEGVIEAMKSFTNVKTFSLPWP
B1 showed a Km [1] of 150 ± 20 µM and a kcat [1] of 0.076 ± 0.003 s⁻¹.

B2: PhnY (Sinorhizobium meliloti 1021) (protein)
chain: B1 chain with A447R
With B2 the Km [2] was 3300 ± 100 µM and the kcat [2] was 1.5 ± 0.1 s⁻¹.

B3: PhnY (Sinorhizobium meliloti 1021; R290A) (protein)
chain: B1 chain with R290A, A447R
For B3, the Km [1] was 5.1 ± 0.6 µM and the kcat [1] was 0.12 ± 0.003 s⁻¹.

B4: PhnY (Sinorhizobium meliloti 1021; N158A) (protein)
chain: B1 chain with N158A, A447R
Molecule B4 has a Km [1] of 29 ± 9 µM and a kcat [1] of 0.010 ± 0.001 s⁻¹.

B5: PhnY (Sinorhizobium meliloti 1021; R108A) (protein)
chain: B1 chain with R108A, A447R
Molecule B5 has a Km [1] of 9.7 ± 0.8 µM and a kcat [1] of 0.051 ± 0.001 s⁻¹.

B6: GAPDH (Streptococcus mutans UA159) (protein)
chain: MTKQYKNYVNGEWKLSENEIKIYEPASGAELGSVPAMSTEEVDYVYASAKKAQPAWRSLSYIERAAYLHKVADILMRDKEKIGAVLSKEVAKGYKSAVSEVVRTAEIINYAAEEGLRMEGEVLEGGSFEAASKKKIAVVRREPVGLVLAISPFNYPVNLAGSKIAPALIAGNVIAFKPPTQGSISGLLLAEAFAEAGLPAGVFNTITGRGSEIGDYIVEHQAVNFINFTGSTGIGERIGKMAGMRPIMLELGGKDSAIVLEDADLELTAKNIIAGAFGYSGQRCTAVKRVLVMESVADELVEKIREKVLALTIGNPEDDADITPLIDTKSADYVEGLINDANDKGAAALTEIKREGNLICPILFDKVTTDMRLAWEEPFGPVLPIIRVTSVEEAIEISNKSEYGLQASIFTNDFPRAFGIAEQLEVGTVHINNKTQRGTDNFPFLGAKKSGAGIQGVKYSIEAMTTVKSVVFDIK
In the case of B6, the Km [3] is reported as 25 ± 7 µM, the kcat [3] is reported as 22 ± 2 s⁻¹ and the Km [4] is reported as 1500 ± 300 µM. The kcat [4] was 0.038 ± 0.022 s⁻¹.
